According to publication PMC12299175 (2025):

Molecular target: synthetic peptide of stem helix (1141-1161) of SARS-CoV-2 WT S with biotin at C terminus (SARS-CoV-2, UniProt P0DTC2 1141-1161, biotin at C terminus)
Assay: BLI

B1: S2P6 recombinant mAb with human IgG1 constant region (antibody, V domains shown)
VH: EVQLVQSGAEVKKPGASVKVSCKASGYTFTSQYMHWVRQAPGQGLEWIGIINPSGVHTSYAQKFQGRVTLTRDTSTSTLYMELSSLRSEDTAVYYCARGSPKGAFDYWGQGTLVTVSS
VL: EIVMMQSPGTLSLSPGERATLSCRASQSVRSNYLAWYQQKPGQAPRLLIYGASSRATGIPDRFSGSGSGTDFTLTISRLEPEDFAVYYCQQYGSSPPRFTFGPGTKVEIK
  koff: < 1e-06 s⁻¹
